Ends that are not written are not given here. * marks the point of attachment. Biotin = O=C1N[C@H]2[C@H](CS[C@H]2CCCCC(=O)*)N1

In the experiment the target is T1, biotinylated DEFA5 epitope peptide Biotin-RATCYCRTGRCAT (human, cysteine pairing not given here).
T1 peptide: Biotin-RATCYCRTGRCAT
Put plainly: SPR.

B1: mouse monoclonal antibody clone 4F5 (anti-DEFA5) (antibody, V domains shown)
VH: QVQLQQSGAELVRPGASVKMSCKALGYTFFDYEMHWMKQTPVYGLEWIGAIHPGSGDTAYNQKFKGKATLTADKSSNTAYMELSSLTSEDSAVYYCTREGTVVAPFDYWGQGTTLTVSS
VL: DVLMTQTPLSLPVSLGDQASISCRSSQSIVHSNGNTYLEWYLQKPGQSPKLLINKVSNRFSGVPDRFSGSGSGTDFTLKISRVEAEDLGVYYCFQGSYVPYTFGGGTKLEIK
modifications: Fc glycosylation, G1F lower and afucosylated G0 ~15 % (intact ESI-MS)
Regarding B1, the off-rate constant (koff) stood at 0.00261 s⁻¹.

B2: mouse monoclonal antibody clone 1A8 (anti-DEFA5) (antibody, V domains shown)
VH: B1 VH
VL: B1 VL
modifications: Fc glycosylation, mainly the G1F glycoform (intact ESI-MS)
B2 had a koff of 0.00253 s⁻¹.

These data come from publication PMC12809912 (2025).
